Test results taken from paper PMC10117100, “The E2F4/p130 Repressor Complex Cooperates with Oncogenic ΔNp73α To Inhibit Gene Expression in Human Papillomavirus 38 E6/E7-Transformed Keratinocytes and in Cancer Cells” (mSphere, 2023).

T1: Gluc1-TAp73α (human, UniProt O15350 1-636)
T1 construct: also called full-length TAp73α; source: HEK293T, transfected (pSPICA vector), in cells; not shown: Gluc1 (fragment of Gaussia princeps luciferase), N-terminal, kept
T1 sequence (looked up): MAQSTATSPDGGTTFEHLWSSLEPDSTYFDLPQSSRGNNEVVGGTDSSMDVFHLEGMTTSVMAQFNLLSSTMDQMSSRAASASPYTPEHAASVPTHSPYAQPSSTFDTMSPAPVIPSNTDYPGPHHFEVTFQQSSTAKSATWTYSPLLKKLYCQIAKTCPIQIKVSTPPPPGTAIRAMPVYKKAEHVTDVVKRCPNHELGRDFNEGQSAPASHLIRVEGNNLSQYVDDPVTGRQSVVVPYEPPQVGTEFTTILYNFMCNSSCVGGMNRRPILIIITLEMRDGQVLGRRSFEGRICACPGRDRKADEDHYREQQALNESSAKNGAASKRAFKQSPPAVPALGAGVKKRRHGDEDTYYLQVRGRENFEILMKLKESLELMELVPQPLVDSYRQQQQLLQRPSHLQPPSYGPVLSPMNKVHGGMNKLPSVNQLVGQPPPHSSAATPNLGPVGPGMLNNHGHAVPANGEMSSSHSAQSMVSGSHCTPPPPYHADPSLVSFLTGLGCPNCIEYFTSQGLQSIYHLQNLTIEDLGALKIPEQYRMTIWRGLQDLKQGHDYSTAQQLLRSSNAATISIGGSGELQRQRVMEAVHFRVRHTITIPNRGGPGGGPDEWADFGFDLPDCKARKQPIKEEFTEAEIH

T2: Gluc1-ΔNp73α FL (human, UniProt O15350-8 1-587)
T2 construct: ΔNp73α isoform of p73, whole ORF, 587 residues by the printed numbering; numbers count on: ΔNp73α; source: HEK293T, transfected (pSPICA vector), in cells; not shown: Gluc1 (fragment of Gaussia princeps luciferase), N-terminal, kept
T2 sequence (looked up): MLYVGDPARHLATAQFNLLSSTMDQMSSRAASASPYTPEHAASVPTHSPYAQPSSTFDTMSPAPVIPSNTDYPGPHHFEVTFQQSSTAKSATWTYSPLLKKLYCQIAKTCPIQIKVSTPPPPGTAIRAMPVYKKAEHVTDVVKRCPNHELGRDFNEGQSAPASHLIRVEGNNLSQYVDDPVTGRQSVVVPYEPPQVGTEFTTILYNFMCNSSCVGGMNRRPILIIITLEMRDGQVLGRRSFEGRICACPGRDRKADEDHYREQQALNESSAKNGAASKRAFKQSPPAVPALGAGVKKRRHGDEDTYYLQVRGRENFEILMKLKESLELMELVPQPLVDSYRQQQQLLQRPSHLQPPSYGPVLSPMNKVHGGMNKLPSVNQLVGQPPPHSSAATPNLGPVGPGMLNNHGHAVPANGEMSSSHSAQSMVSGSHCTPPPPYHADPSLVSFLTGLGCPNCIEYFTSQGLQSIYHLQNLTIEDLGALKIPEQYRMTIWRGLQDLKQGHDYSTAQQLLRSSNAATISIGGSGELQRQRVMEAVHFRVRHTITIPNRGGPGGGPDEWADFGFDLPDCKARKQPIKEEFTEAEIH

B1: Gluc2-DP1 (natural protein, human, UniProt Q14186 1-410, looked up)
chain: MAKDAGLIEANGELKVFIDQNLSPGKGVVSLVAVHPSTVNPLGKQLLPKTFGQSNVNIAQQVVIGTPQRPAASNTLVVGSPHTPSTHFASQNQPSDSSPWSAGKRNRKGEKNGKGLRHFSMKVCEKVQRKGTTSYNEVADELVAEFSAADNHILPNESAYDQKNIRRRVYDALNVLMAMNIISKEKKEIKWIGLPTNSAQECQNLEVERQRRLERIKQKQSQLQELILQQIAFKNLVQRNRHAEQQASRPPPPNSVIHLPFIIVNTSKKTVIDCSISNDKFEYLFNFDNTFEIHDDIEVLKRMGMACGLESGSCSAEDLKMARSLVPKALEPYVTEMAQGTVGGVFITTAGSTSNGTRFSASDLTNGADGMLATSSNGSQYSGSRVETPVSYVGEDDEEDDDFNENDEDD
notes: human DP1, whole ORF (bought from Addgene); source: HEK293T, transfected (pSPICA vector), in cells; not shown: Gluc2 (fragment of Gaussia princeps luciferase), N-terminal, kept
B2: Gluc2-E2F4 FL (natural protein)
chain: not shown
notes: human E2F4, whole ORF (bought from Addgene), 413 residues by the printed numbering; source: HEK293T, transfected (pSPICA vector), in cells; not shown: Gluc2 (fragment of Gaussia princeps luciferase), N-terminal, kept

Columns and labels:
Assay in all cases: split reporter (BiFC, NanoBiT); Gaussia princeps protein complementation assay (GPCA): Gluc1 and Gluc2 N-terminal fusions co-transfected in HEK293T, luminescence of lysates after 48 h as normalized luminescence ratio (NLR); pairs count as interacting if NLR is above 5
Conditions in all cases: partners not purified
Gluc1-E2F4 = target: T3, Gluc1-E2F4 (human, UniProt Q16254 1-413)
T3 construct: human E2F4, whole ORF (bought from Addgene); source: HEK293T, transfected (pSPICA vector), in cells; not shown: Gluc1 (fragment of Gaussia princeps luciferase), N-terminal, kept
T3 sequence (Q16254 whole entry, the tested form may be a part): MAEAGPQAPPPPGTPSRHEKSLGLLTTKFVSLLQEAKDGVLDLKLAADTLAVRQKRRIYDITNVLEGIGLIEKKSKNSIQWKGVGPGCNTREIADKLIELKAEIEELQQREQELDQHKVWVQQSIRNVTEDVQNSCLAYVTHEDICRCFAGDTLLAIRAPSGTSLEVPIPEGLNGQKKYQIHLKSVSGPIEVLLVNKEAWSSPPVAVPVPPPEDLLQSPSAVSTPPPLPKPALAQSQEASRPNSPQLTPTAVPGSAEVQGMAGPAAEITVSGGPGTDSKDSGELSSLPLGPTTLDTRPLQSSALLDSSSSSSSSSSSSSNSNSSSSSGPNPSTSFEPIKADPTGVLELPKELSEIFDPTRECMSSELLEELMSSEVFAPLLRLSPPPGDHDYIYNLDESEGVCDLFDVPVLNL

Gluc1-TAp73α = target: T1, Gluc1-TAp73α
Gluc1-ΔNp73α FL = target: T2, Gluc1-ΔNp73α FL

| Binder | normalized luminescence ratio (NLR) (Gluc1-E2F4) | binding response relative to that obtained with ΔNp73α (Gluc1-TAp73α) | normalized luminescence ratio (NLR) (Gluc1-ΔNp73α FL) |
| --- | --- | --- | --- |
| B1 | ~500 | – | – |
| B2 | – | ~50% | > 20 |
